This data set in a line: soluble on expression in E. coli; label from the status in PepcDB or PDB records.
In the case of “MSLATEIVENMFCVNAPAGSGKTTKIKSMIVNHKIKHPIDNILCITYTKRAAEELNKDFNEEGIHISTIHSFLHKFLKIYFCKTEMKDLYFEMFEDLIKESIENKEEKEHIVTRNQKYIEKHGCLSVESIKANIDAIYYNESSNNHLYTGGLAHDSLLLFAEKVFDKFPKIKMRLTQKYQSIFIDEYQDSAASVLRMFYKACLNTKSNLYFLGDKMQQIYKNYDGSFEEELKTLNTDIKLDINHRSIPDIVSVLNNIYNDKGFKQNPSKKNLDIKPDHPPRIIMCDNIQERLKRECSIYPDALLLFLLNQQKFASIGARELYKQFSHLERYSHAKQLSATDVLSDNTSENTDPLLKLLFIVGEVVDYYKKSNVGSIIQIFKANRKLFDMGIGTITSHRDRIDLTKLLKQLYEDYHKEISISEFLTLLRGCNEGHHHHHH”, the “soluble on expression in E. coli” value was “not soluble”.

For “MSLKMRNNVFVFDSPYCLLIYCILFNHQLHDTIYIYSDNVSLRDINFPGKERYIIKKGNNKTSKIFYYFCFLFRLIINPKLRKLISNRKDYRFLGQDHLFFSKPFLNEFILLEDGLANYRYPHYSRLYKLIIGGHTFGRSTKVNKILLSGMIDIIDPTINDKVEFFDLIAAWEKLNSVQKKEINHIFNYCIEDELVADVMILTQPLSEDGFISENEKIRLYDEIIKEYDDKKIVIRQHPRELTDYSLYFKDVKVNKVKAPVELVVLNSPMIKTAVTLFSGGIFNIPCREKIFKGTSFSPLLSKHFGNISNKFEVKGKKEGHHHHHH”, the “soluble on expression in E. coli” value is on record as “soluble”.

Consider “MTNQNLQDFLDGVLLKEENLNKITEVSLEKGLPHLLDEGIHNEDNFQIFTSQKIVADMIKMVGVKEMKNVHTTVLEPTSGDGAFTCAILDLRLKNIKKSDSFLKEALTGLSTIYSVEIDEELVWLQRNNLYSIFLAFLKKHGIFNEELSLLVKKILMINVSWGELITETKDNENFVCNYDYFLRNKKTKKKPAKHKHEFPEGLFSNGEGKCKSLFVNWSFADVINEIAHNSNFYFAKIAKIPGEIIQFQIN”, for which the “soluble on expression in E. coli” value is “not soluble”.

In the case of “MTVLVVRHGTAGSKAHFSGDDSKRPLDKRGRAQAEALVPQLLAFGATDVYAADRVRCHQTMEPLAAELNVTIHNEPTLTEESYANNPKRGRHRVLQIVEQVGTPVICTQGKVIPDLITWWCERDGVHPDKSRNRKGSTWVLSLSAGRLVTADHLEHHHHHH”, the “soluble on expression in E. coli” value was “not soluble”.

Consider “MRLNFAYPATGLQKSFEVDEEKKLRLFFEKRMSQEVAIDALGDEWKGYVVRIGGGNDKQGFPMKQGILTNGRVRLLLKKGQSCYRERKNGERKRKSVRGCIVDANMSALSLVIVKKGDGEIEGLTDSVLPRKLGPKRASKIRKLFNLTKHDDVTKYVITHDKTFPDGVTKTIAPKIQRLITPARIARKKYLLRQKRNQKIKMRDDAAAYHKLLAKYSKEEHDAKIARRRSSASHHSESEVKKTSKK”, for which the “soluble on expression in E. coli” value is given as “not soluble”.

Turning to “MIYEIKFAHGESNVFAISDIELAPQTEVILRSDKGNFYGKIVREISEEANLEIHHTIVREVNEDDLQVIAKLEERSKQAKDKVRQLVIEQGLEMKIIDVAYNFDQMQLFISFTAENRVDFRLLLRELATTFRIRIELRQIGPRDAAKIHGGLGPCGRPLCCSEFVYEFPNVSIKMAKNQNLSLKQNKLNGLCGRLMCCLTYEDSFYKEAQQLFPDFGEFVTTSEGKGKVVGLNVLKNRVKIRFGEYSKDFELAEIEVNHGLEHHHHHH”, the “soluble on expression in E. coli” value is “soluble”.

As for “MAKLDETLTMLKALTDAKGVPGNEREARDVMKTYIAPYADEVTTDGLGSLIAKKEGKSGGPKVMIAGHLDEVGFMVTQIDDKGFIRFQTLGGWWSQVMLAQRVTIVTKKGDITGVIGSKPPHILPSEARKKPVEIKDMFIDIGATSREEAMEWGVRPGDMIVPYFEFTVLNNEKMLLAKAWDNRIGCAVAIDVLKQLKGVDHPNTVYGVGTVQEEVGLRGARTAAQFIQPDIAFAVDVGIAGDTPGVSEKEAMGKLGAGPHIVLYDATMVSHRGLREFVIEVAEELNIPHHFDAMPGVGTDAGAIHLTGIGVPSLTIAIPTRYIHSHAAILHRDDYENTVKLLVEVIKRLDADKVKQLTFDE”, the “soluble on expression in E. coli” value was “not soluble”.

In the case of “MNIVAKPTSFISGAVDGVVDLKNTYTENQHLKERLEELAQLESEVADLKKENKDLKESLDITDSIRDYDPLNASVISRNPTNWNDQVEIDKGSSDGVKPDMAVTTPSGLIGKVTTTGAKSATVELLTSSDVKNRVSAKVQGKENAFGIINGYDSDTKLLELKQLPYDMKFKKGQKVVTSGLGGKFPAGIFIGTIEKVETDKMGLSQTAFIKPGADMYDLNHVTVLKRSAEAGTTDDDTTSSDTTGGQGSHHHHHH”, the “soluble on expression in E. coli” value is on record as “soluble”.

In the case of “DIGCYTLGLLPPFDAQDSSTDMGSSIGIANGVYRATGNIPIAVIGDSTFFHSGISALANAVYNQTPMLVLVLDNRSTAMTGQQPSPSKEIDIGEVAKGLGVKYVRYVDPFDVNSSIRELSNALKWVKDNKQPAVVIAKRACALLVMDNVEESNLPKA”, the “soluble on expression in E. coli” value is “not soluble”.

Regarding “MFNYSGLNEECGVFGIWNHPEAAQLTYMGLHSLQHRGQEGAGIVVSDQNELKGERGLGLLTEAIKDDQMERLKGYQHAIGHVRYATSGNKGIENIQPFLYHFYDMSVGICHNGNLINAKSLRQNLEKQGAIFHSSSDTEVIMHLIRRSKAPTFEEALKESLRKVKGGFTFAILTKDALYGAVDPNAIRPLVVGKMKDGTYILASETCAIDVLGAEFVQDIHAGEYVVINDKGITVKSYTHHTTTAISAMEYIYFARPDSTIAGKNVHAVRKASGKKLAQESPVNADMVIGVPNSSLSAASGYAEEIGLPYEMGLVKNQYVARTFIQPTQELREQGVRVKLSAVKDIVDGKNIILVDDSIVRGTTIRRIVKMLKDSGANKVHVRIASPEFMFPSFYGIDVSTTAELISASKSPEEIKDYIGADSLAYLSVDGLIESIGLDYDAPYSGLCVESFTGDYPAGLYDYEANYKAHLSHRQKQYISKNKHFFDSEGNLNV”, the “soluble on expression in E. coli” value is given as “not soluble”.

As for “MGSDKIHHHHHHMDTRKNVSGAERKIWSLIRDCSGKLEGVTETSVLEVLLIVSRVLGIRKEDLFLKDLGVSPTEEKRILELVEKRASGYPLHYILGEKEFMGLSFLVEEGVFVPRPETEELVELALELIRKYGIKTVADIGTGSGAIGVSVAKFSDAIVFATDVSSKAVEIARKNAERHGVSDRFFVRKGEFLEPFKEKFASIEMILSNPPYVKSSAHLPKDVLFEPPEALFGGEDGLDFYREFFGRYDTSGKIVLMEIGEDQVEELKKIVSDTVFLKDSAGKYRFLLLNRRSS”, the “soluble on expression in E. coli” value is given as “soluble”.

“MIIEFEEKLLDLIDAQVVNASSDELFAGGYLRGHISLSAAQCEEEGITELDVLKQRIEQSLEAARSELSPADRAIVAELWQQLAAQA”: the “soluble on expression in E. coli” value was “not soluble”.

Take “MSTHFGYKTVEADKKADLVAGVFHSVAAKYDIMNDVMSFGIHRFWKRYTIEVSGARPGMKVLDLAGGTGDLTAKFSHLVGDKGEVVLADINDSMLKVGRTKLRDRGIVSNVSYVQANAEALPFPDNHFDIITIAFGLRNVTDKDAALRSMNRVLKPGGKLLVLEFSKPQHEVMRKVYDLYSFKVLPKMGQLITKDADSYEYLAESIRMHPDQDTLKQMMVDAGFEQVDYTNMTDGIVALHRGYKLEHHHHHH”: the “soluble on expression in E. coli” value is recorded as “not soluble”.

In the case of “MRRVSINSFLEPNSPNVPNRVTIPDGDLRRNSDDTATDRISLTNQLGKSAYSTTTEDSIDSETSETRMDSSRTSEISGNVKEDPVSENQYVLENSESSESIVVDLEMPGMTLRSKASPRKRYMSKKEKDLNDEKKNFKDLVLTIGQNQIQDPDEDFQITKEAIDLLQSESDKILLEMFTSSNAIATAGERDILTPTDIQTARHIQMIMKKYKK”, the “soluble on expression in E. coli” value is “not soluble”.

As to “MTNFEYYRDFDDFQRRETINFFLSKFPLASQKQLQDFLEQARQAYVQLRQTNPAHLDWNQTLLYLAQKFLPEKQSEKDRLKKILVLQEQLKVRYEGEIKRQSQQNSELLIQLGQRDEEIIQMQQLFKEKERQLEVYQKQLNEAKEYNHKLEEHYNKTLEEALKEYEQQCTDAIHRRDEEIQAIFTSKLNEKNSEITQLQTYLQSAVDENEALQKQHKLVLFKNQKYEKMVSDLQVDLARIQEINNSLTSEKRDFQRANNDLVKQYNKLKNRLEQKLGEITNAQVNGQTHTVSLADTSQQFHRPQEAVIPQTQVISYTLDDMDDDMEVEETPPTTNKDLPRGATQPKRNSIKRVSKLID”, the “soluble on expression in E. coli” value is recorded as “soluble”.
